Patent publication US20050143287A1

Assays:
Assay in all cases: cell-based or functional assay
[1] = target: squirrel monkey prokineticin receptor 2 (PKR2) (squirrel monkey)
[2] = target: chimpanzee prokineticin receptor 2 (PKR2) (chimpanzee (Pan troglodytes))
[3] = target: rhesus monkey prokineticin receptor 1 (PKR1) (rhesus monkey)

| Substance | calcium mobilization (aequorin luminescence) in transiently transfected CHO cells [1] [nM] | calcium mobilization (aequorin luminescence) in transiently transfected CHO cells [2] [nM] | calcium mobilization (aequorin luminescence) in transiently transfected CHO cells [3] [nM] |
| --- | --- | --- | --- |
| recombinant human PK1 (prokineticin 1) (from UniProt P58294 20-101) (ligand) | 10 | – | – |
| recombinant human PK2 (prokineticin 2) (from UniProt Q9HC23 28-129) (ligand) | – | 10 | 10 |
